Data on three molecules can be found in article PMC10643903 (Journal of Innate Immunity, 2022).

For experiment [1], the target named is recombinant full-length human C6 with a C-terminal 10xHis-tag (human, UniProt P13671 22-934). The experiment in a line: BLI.
For experiment [2], the target named is human C6 FIM1-2 fragment (residues 766–934) with an N-terminal 10xHis-tag (human, UniProt P13671 766-934). The experiment in a line: BLI.
For experiment [3], the target named is biotinylated AVI-tagged full-length human C6 (Homo sapiens, UniProt P13671, biotin on the AVI-tag (BirA ligase)). Nature of the experiment: BLI.
Chain of biotinylated AVI-tagged full-length human C6 (P13671 22-934): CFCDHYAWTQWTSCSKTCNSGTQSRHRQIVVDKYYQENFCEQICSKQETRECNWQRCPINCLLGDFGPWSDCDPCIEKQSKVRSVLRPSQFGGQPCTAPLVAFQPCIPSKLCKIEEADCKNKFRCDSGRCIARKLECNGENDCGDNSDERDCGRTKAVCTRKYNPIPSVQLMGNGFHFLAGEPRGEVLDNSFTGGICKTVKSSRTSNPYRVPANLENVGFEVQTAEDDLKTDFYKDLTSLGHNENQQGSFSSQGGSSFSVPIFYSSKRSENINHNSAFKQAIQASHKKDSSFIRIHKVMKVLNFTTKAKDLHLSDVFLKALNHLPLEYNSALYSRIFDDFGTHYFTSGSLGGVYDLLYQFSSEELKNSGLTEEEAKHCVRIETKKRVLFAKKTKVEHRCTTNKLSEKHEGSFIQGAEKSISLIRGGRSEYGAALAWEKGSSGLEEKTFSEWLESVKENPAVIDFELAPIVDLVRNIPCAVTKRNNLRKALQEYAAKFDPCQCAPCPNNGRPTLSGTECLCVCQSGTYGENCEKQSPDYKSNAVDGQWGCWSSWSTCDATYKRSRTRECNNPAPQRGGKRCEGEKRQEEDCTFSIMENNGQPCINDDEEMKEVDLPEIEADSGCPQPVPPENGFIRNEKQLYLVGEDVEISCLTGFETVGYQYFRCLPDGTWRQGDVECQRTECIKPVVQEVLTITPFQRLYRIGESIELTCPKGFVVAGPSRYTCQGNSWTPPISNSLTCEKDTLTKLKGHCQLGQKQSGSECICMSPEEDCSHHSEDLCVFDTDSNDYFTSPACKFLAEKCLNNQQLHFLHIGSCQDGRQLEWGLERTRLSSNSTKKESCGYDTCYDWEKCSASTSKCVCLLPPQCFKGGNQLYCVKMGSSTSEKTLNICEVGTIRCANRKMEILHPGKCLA
The target of experiment [4] is T1, dog C6 FIM1-2 fragment (Canis lupus familiaris).
T1 chain: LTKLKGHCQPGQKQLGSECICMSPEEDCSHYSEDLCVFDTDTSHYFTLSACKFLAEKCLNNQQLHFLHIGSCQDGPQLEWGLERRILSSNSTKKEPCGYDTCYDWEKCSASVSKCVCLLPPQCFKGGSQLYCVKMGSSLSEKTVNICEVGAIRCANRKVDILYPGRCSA
Nature of the experiment: BLI.

Experiment [5] deals with pig (Sus scrofa) C6 FIM1-2 fragment (Sus scrofa, UniProt A0SEH0). The experiment in a line: BLI.
Experiment [6] concerns the target human C6 FIM1-2 fragment (residues 766–934) with an N-terminal 10xHis-tag (human, UniProt P13671). The experiment in a line: BLI.
Experiment [7] concerns the target Macaca C6 FIM1-2 fragment (Macaca fascicularis (entry of printed …, UniProt A0A2K5W3S5)). Nature of the experiment: BLI.
Experiment [8] concerns the target C6∆FIM1-2 (1–762) with a C-terminal His-tag (human, UniProt P13671). Nature of the experiment: SEC.

Chain of human C6 FIM1-2 fragment (residues 766–934) with an N-terminal 10xHis-tag (human, UniProt P13671 766-934) (P13671 766-934): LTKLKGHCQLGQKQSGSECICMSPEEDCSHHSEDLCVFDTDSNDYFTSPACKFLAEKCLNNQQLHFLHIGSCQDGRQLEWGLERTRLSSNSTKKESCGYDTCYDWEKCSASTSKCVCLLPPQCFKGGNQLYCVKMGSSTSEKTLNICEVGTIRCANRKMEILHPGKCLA
Chain of human C6 FIM1-2 fragment (residues 766–934) with an N-terminal 10xHis-tag (human, UniProt P13671) (P13671 766-934): as above
Chain of C6∆FIM1-2 (1–762) with a C-terminal His-tag (P13671 22-762): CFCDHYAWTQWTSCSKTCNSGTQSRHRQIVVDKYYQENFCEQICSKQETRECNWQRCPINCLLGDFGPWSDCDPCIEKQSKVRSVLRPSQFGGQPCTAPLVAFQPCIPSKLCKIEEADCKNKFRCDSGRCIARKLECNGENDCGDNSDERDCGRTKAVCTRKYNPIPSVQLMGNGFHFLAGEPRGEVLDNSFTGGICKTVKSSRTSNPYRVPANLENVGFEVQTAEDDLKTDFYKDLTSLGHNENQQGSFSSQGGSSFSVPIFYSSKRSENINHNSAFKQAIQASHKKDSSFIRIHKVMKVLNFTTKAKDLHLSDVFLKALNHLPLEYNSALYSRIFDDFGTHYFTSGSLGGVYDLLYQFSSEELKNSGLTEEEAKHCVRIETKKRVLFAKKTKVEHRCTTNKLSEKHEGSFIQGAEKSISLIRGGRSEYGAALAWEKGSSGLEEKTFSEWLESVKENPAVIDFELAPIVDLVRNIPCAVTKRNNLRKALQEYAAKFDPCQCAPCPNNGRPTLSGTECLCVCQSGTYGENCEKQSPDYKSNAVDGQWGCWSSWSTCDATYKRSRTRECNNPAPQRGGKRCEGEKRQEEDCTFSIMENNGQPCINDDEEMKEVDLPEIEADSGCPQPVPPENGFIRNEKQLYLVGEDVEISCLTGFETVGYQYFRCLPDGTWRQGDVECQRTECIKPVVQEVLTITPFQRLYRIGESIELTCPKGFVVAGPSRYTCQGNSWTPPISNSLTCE
Chain of recombinant full-length human C6 with a C-terminal 10xHis-tag (P13671 22-934): as the sequence (P13671 22-934) above

B1: human C5 C345c domain (residues 1528–1676) (domain or fragment, UniProt P01031 1528-1676, looked up)
chain: VEADCGQMQEELDLTISAETRKQTACKPEIAYAYKVSITSITVENVFVKYKATLLDIYKTGEAVAEKDSEITFIKKVTCTNAELVKGRQYLIMGKEALQIKYNFSFRYIYPLDSLTWIEYWPRDTTCSSCQAFLANLDEFAEDIFLNGC
For the molecule B1, the dissociation constant Kd in experiment [1] is 10 to 20 nM; in experiment [2], 5 nM.

B2: CP010 Fab (Fab, V domains shown)
VH: EVQLVESDGGLVQPGGSLKLSCAASGFTFSDYYMAWVRQGPGKGLEWVATINYDGSSTYYRESVKGRFTISRDNAKNTLYLQMNSLRAEDTATYYCARPSTEALFAYWGHGTLVTVSS
VL: DVVLTQTPSTLSVTPGQPASISCRSSQSLLNDVGNTYLYWYLQKPGQSPQLLIYLVSDLGSGVPNRFSGSGSGTDFTLKISRVEAEDVGIYYCMQASHAPYTFGQGTNLEIK
Regarding B2, the Kd in experiment [3] was 0.3 nM; in experiment [4], approximately 5 nM; in experiment [5], approximately 5 nM; in experiment [6] it was 2.8 nM; in experiment [7] it was approximately 5 nM.

B3: CP010, fully humanized version of 7E5 with a human IgG4 S228P constant region (antibody, V domains shown)
VH: B2 VH
VL: B2 VL
In the case of B3, the binding result in experiment [8] is on record as “no binding”.
